Source: paper PMC9114370 (2022)

Target: T1, TDP-43_(1–102) (human, UniProt Q13148 1-102, fluorescently labelled for MST)
T1 chain: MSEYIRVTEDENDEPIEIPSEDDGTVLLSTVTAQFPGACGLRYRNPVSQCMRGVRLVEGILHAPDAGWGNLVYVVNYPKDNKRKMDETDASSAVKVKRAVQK
Experiment: MST

B1: HspA5 substrate binding domain (SBD) (domain or fragment)
chain: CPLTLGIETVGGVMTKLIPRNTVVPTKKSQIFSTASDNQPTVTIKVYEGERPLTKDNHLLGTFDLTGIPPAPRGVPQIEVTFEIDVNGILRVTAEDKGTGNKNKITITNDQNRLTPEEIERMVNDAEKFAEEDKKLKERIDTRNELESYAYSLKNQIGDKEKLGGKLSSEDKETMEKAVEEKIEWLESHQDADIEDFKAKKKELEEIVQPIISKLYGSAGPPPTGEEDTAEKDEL
B1 gave a Kd of 1.44 µM.
